Stoichiometry N data for one substance are collected here from paper PMC11555092.

The target in this test is HIV-1 CA hexamer (CA A14C/E45C/W184A/M185A mutant) (HIV-1). The test is described as follows: SEC; Superdex 10/300 GL increase column in 50 mM Tris pH 8; elution at 12.5 mL. For orientation: SEC sorts molecules by how far they enter the pores of the column.

Turning to “HIV-1 CA hexamer (CA A14C/E45C/W184A/M185A mutant) (complex)”, the stoichiometry N was found to be 6.

Usually stoichiometry N stands for a count of units in the complex or per binding partner.
